Test results: patent US20240277823A1 (published 2024)

Key:
[1] = biological target: 6A5; test: BLI; 500 nM antigen
[2] = biological target: 5G10; test: BLI; 500 nM antigen

Kd [1]: < 1 pM
Kd [2]: < 1 pM
B1: LA0591 (other)
chain: VNPDQYCPASKKENHNIRIKRTLPPDFQLTEEWLRRLYDIATSASLTEGQIHGICGVCLLQTFQMLAELQEYHSHGPLQGGGYFFNTAPDTDPFDSFRQRYPELDTMLTDAATAYGPAYNTTRLLTLVSAMTMMPQYEWTPSREFTTRSDMHSHIRSLIDSPPGSIWLGLMQRRESDETLRWHALPILRTSQGLIVIQTRVSTMSFELYRLYLTPSTSIVQIINDYLEEADRTLTVLVTIQLEQAYQNLFDFMVSNMNCTGEGENRRGSGGYPTSATVNQCSGGRCALPNW
